From PMC4058081, “p600 regulates spindle orientation in apical neural progenitors and contributes to neurogenesis in the developing neocortex” (Biology Open, 2014)

Columns and labels:
[1] = molecular target: the molecule itself; assay: static light scattering; Ndel1^1–201 alone in solution; data not included
[2] = molecular target: T1, recombinant p600^4480–5183 (human, UniProt Q5T4S7 4480-5183); assay: SEC; analytical SEC, Superdex 200 5/150, 4°C, 10 mM HEPES pH 7.5, 0.15 M NaCl, 1 mM DTT; proteins alone or mixed at 50 µM and incubated 30 min on ice; fractions analysed by SDS-PAGE; details: both partners purified
T1 construct: Elutes mostly as a monomer (~75 kDa) in SEC; also called C-terminal portion of p600; source: E. coli BL21-Rosetta, purified (glutathione sepharose, PreScission cleavage, Resource Q)
T1 sequence (Q5T4S7 4480-5183): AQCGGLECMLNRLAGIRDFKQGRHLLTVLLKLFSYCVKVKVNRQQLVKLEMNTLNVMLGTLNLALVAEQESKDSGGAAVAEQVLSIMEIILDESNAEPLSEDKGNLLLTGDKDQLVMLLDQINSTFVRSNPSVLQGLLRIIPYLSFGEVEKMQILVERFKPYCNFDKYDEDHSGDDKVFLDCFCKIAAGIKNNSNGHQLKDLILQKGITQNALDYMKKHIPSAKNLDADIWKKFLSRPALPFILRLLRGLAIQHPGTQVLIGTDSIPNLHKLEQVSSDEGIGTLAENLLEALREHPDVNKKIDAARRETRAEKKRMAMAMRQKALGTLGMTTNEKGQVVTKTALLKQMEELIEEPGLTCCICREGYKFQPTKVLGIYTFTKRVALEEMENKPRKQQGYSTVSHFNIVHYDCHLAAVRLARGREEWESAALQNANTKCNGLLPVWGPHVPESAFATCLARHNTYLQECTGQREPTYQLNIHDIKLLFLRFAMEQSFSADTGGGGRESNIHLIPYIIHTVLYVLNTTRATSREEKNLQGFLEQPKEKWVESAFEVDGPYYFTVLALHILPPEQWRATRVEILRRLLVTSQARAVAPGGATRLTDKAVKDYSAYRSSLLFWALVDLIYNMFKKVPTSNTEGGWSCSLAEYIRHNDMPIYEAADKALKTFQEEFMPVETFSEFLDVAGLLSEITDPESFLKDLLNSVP

Kd [2]: 30 to 50 µM
B1: Ndel1^1–201 (coiled-coil region of Ndel1) (domain or fragment, UniProt Q9GZM8 1-201, looked up)
chain: MDGEDIPDFSSLKEETAYWKELSLKYKQSFQEARDELVEFQEGSRELEAELEAQLVQAEQRNRDLQADNQRLKYEVEALKEKLEHQYAQSYKQVSVLEDDLSQTRAIKEQLHKYVRELEQANDDLERAKRATIVSLEDFEQRLNQAIERNAFLESELDEKESLLVSVQRLKDEARDLRQELAVRERQQEVTRKSAPSSPTL
notes: Dimeric in solution by static light scattering (data not included); also called N-terminal coiled-coil domain of Ndel1; source: E. coli BL21-Rosetta, purified (Ni-NTA, ion exchange)
stoichiometry N [1]: 2
